For this assay, the target named is T1, GST-MYCBP2cat (Homo sapiens, UniProt O75592).
T1 construct: GST-tagged MYCBP2cat (Ser4378-Phe4640), wt and mutants, were expressed at 16° C. overnight; made in house; host or cells: E. coli BL21-DE3
T1 sequence (O75592 4416-4678 limits assumed): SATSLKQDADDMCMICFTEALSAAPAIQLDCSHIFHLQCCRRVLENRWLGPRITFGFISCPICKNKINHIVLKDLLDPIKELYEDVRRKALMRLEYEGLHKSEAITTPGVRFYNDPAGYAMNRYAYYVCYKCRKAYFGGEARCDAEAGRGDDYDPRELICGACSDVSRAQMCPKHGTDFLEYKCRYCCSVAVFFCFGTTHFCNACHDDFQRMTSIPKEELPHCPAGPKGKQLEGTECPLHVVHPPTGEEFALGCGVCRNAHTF
As to the kind of experiment: Multiple turnover E2 discharge panel (threonine discharge). The settings on record: 17 E2s tested. The assay is classed as biochemical. As to the method:
E2s were screened for threonine discharge activity with GST-MYCBP2cat as described for the amino acid panel. E2s were also incubated in the presence of threonine but in the absence of GST-MYCBP2cat. These samples provided a reference to distinguish between intrinsic E2˜Ub instability and E3-dependent discharge.

B1: UBE2E1: E2 conjugating enzyme (protein, UniProt P51965 2-193, looked up)
Ubiquitin-conjugating enzyme …: SDDDSRASTSSSSSSSSNQQTEKETNTPKKKESKVSMSKNSKLLSTSAKRIQKELADITLDPPPNCSAGPKGDNIYEWRSTILGPPGSVYEGGVFFLDITFTPEYPFKPPKVTFRTRIYHCNINSQGVICLDILKDNWSPALTISKVLLSICSLLTDCNPADPLVGSIATQYMTNRAEHDRMARQWTKRYAT
Take B1: the “E2 partner activity with MYCBP2cat” value is “robust activity”.
